This data set is described as follows: background-corrected fluorescence of 3'-dye-labeled ssDNA relative to brightest sequence (3'-GCGCG) (fraction); higher = brighter dye fluorescence (less quenching). The essentials:
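Fluorescence values are background-corrected using unlabeled oligos and expressed relative to the brightest sequence. The single-stranded DNA was made on glass slides by light-directed phosphoramidite synthesis, each of 1024 permuted pentamers ending beside a 3' Cy3 or Cy5 dye. Scans at 532 or 635 nm were taken before and after overnight ethylenediamine/ethanol deprotection, and each value averages 10 features per array and at least 3 syntheses.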

± gives the standard error.

For “TTTTTTGATCATGCTCAGCATTTTTTTTTTTTTTTCGAGT [TGAGC]”, the background-corrected fluorescence by setting is: (dye: Cy3 (3' terminal)) 0.684 ± 0.026; (dye: Cy5 (3' terminal)) 0.477 ± 0.058.
Take “TTTTTTGATCATGCTCATCATTTTTTTTTTTTTTTCGAGG [GGAGC]”: the background-corrected fluorescence is, setting by setting: (dye: Cy3 (3' terminal)) 0.723 ± 0.029; (dye: Cy5 (3' terminal)) 0.534 ± 0.035.
On the same counts, the results for “TTTTTTGATCATGCTCATGATTTTTTTTTTTTTTTCGAGC” are 0.547 ± 0.018 and 0.425 ± 0.035.
As for “TTTTTTGATCATGCTCATGCTTTTTTTTTTTTTTTCGAGA [AGAGC]”, the background-corrected fluorescence reads like this: (dye: Cy3 (3' terminal)) 0.695 ± 0.032; (dye: Cy5 (3' terminal)) 0.53 ± 0.037.
The like results for “TTTTTTGATCATGCTGAGCATTTTTTTTTTTTTTTCGACT [TCAGC]” were, in that order, 0.488 ± 0.019 and 0.363 ± 0.028.
The like results for “TTTTTTGATCATGCTGATCATTTTTTTTTTTTTTTCGACG [GCAGC]” were, in that order, 0.602 ± 0.013 and 0.491 ± 0.024.
Take “TTTTTTGATCATGCTGATGATTTTTTTTTTTTTTTCGACC [CCAGC]”: the background-corrected fluorescence turned out to be 0.4 ± 0.016 (dye: Cy3 (3' terminal)) and 0.324 ± 0.03 (dye: Cy5 (3' terminal)).
On the same counts, the results for “TTTTTTGATCATGCTGATGCTTTTTTTTTTTTTTTCGACA [ACAGC]” are 0.512 ± 0.028 and 0.429 ± 0.053.
For “TTTTTTGATCATGCTGCGCATTTTTTTTTTTTTTTCGAAT [TAAGC]”, the background-corrected fluorescence by setting is: (dye: Cy3 (3' terminal)) 0.599 ± 0.04; (dye: Cy5 (3' terminal)) 0.402 ± 0.026.
For “TTTTTTGATCATGCTGCTCATTTTTTTTTTTTTTTCGAAG [GAAGC]”, the background-corrected fluorescence amounted to 0.609 ± 0.013 (dye: Cy3 (3' terminal)) and 0.463 ± 0.021 (dye: Cy5 (3' terminal)).
For “TTTTTTGATCATGCTGCTGATTTTTTTTTTTTTTTCGAAC [CAAGC]”, the background-corrected fluorescence reads like this: (dye: Cy3 (3' terminal)) 0.48 ± 0.039; (dye: Cy5 (3' terminal)) 0.366 ± 0.022.
“TTTTTTGATCATGCTGCTGCTTTTTTTTTTTTTTTCGAAA [AAAGC]”: the background-corrected fluorescence (dye: Cy3 (3' terminal)) was determined as 0.576 ± 0.032 and the background-corrected fluorescence (dye: Cy5 (3' terminal)) came to 0.475 ± 0.057.
Take “TTTTTTGATGAGCAGCAGCATTTTTTTTTTTTTTTCCTTT”: the background-corrected fluorescence reads like this: (dye: Cy3 (3' terminal)) 0.492 ± 0.016; (dye: Cy5 (3' terminal)) 0.347 ± 0.023.
The like results for “TTTTTTGATGAGCAGCATCATTTTTTTTTTTTTTTCCTTG [GTTCC]” were, in that order, 0.547 ± 0.021 and 0.378 ± 0.025.
The like results for “TTTTTTGATGAGCAGCATGATTTTTTTTTTTTTTTCCTTC [CTTCC]” were, in that order, 0.362 ± 0.03 and 0.288 ± 0.03.
As for “TTTTTTGATGAGCAGCATGCTTTTTTTTTTTTTTTCCTTA [ATTCC]”, the background-corrected fluorescence is, setting by setting: (dye: Cy3 (3' terminal)) 0.513 ± 0.023; (dye: Cy5 (3' terminal)) 0.369 ± 0.029.
The like results for “TTTTTTGATGAGCATCAGCATTTTTTTTTTTTTTTCCTGT [TGTCC]” were, in that order, 0.584 ± 0.0059 and 0.459 ± 0.038.
Turning to “TTTTTTGATGAGCATCATCATTTTTTTTTTTTTTTCCTGG [GGTCC]”, the background-corrected fluorescence runs as follows: (dye: Cy3 (3' terminal)) 0.557 ± 0.023; (dye: Cy5 (3' terminal)) 0.47 ± 0.054.
The like results for “TTTTTTGATGAGCATCATGATTTTTTTTTTTTTTTCCTGC [CGTCC]” were, in that order, 0.485 ± 0.028 and 0.394 ± 0.032.
On the same counts, the results for “TTTTTTGATGAGCATCATGCTTTTTTTTTTTTTTTCCTGA [AGTCC]” are 0.592 ± 0.034 and 0.499 ± 0.086.
On the same counts, the results for “TTTTTTGATGAGCATGAGCATTTTTTTTTTTTTTTCCTCT [TCTCC]” are 0.431 ± 0.012 and 0.312 ± 0.026.
As to “TTTTTTGATGAGCATGATCATTTTTTTTTTTTTTTCCTCG [GCTCC]”, the background-corrected fluorescence runs as follows: (dye: Cy3 (3' terminal)) 0.471 ± 0.02; (dye: Cy5 (3' terminal)) 0.393 ± 0.057.
Take “TTTTTTGATGAGCATGATGATTTTTTTTTTTTTTTCCTCC”: the background-corrected fluorescence (dye: Cy3 (3' terminal)) was found to be 0.342 ± 0.03 and the background-corrected fluorescence (dye: Cy5 (3' terminal)) worked out at 0.273 ± 0.021.
For the sequence “TTTTTTGATGAGCATGATGCTTTTTTTTTTTTTTTCCTCA [ACTCC]”, the background-corrected fluorescence reads like this: (dye: Cy3 (3' terminal)) 0.493 ± 0.0056; (dye: Cy5 (3' terminal)) 0.377 ± 0.042.
On the same counts, the results for “TTTTTTGATGAGCATGCGCATTTTTTTTTTTTTTTCCTAT [TATCC]” are 0.486 ± 0.018 and 0.361 ± 0.028.
The like results for “TTTTTTGATGAGCATGCTCATTTTTTTTTTTTTTTCCTAG [GATCC]” were, in that order, 0.532 ± 0.019 and 0.414 ± 0.023.
On to “TTTTTTGATGAGCATGCTGATTTTTTTTTTTTTTTCCTAC [CATCC]”, for which the background-corrected fluorescence was 0.45 ± 0.02 (dye: Cy3 (3' terminal)) and 0.306 ± 0.042 (dye: Cy5 (3' terminal)).
In the case of “TTTTTTGATGAGCATGCTGCTTTTTTTTTTTTTTTCCTAA [AATCC]”, the background-corrected fluorescence is 0.538 ± 0.015 (dye: Cy3 (3' terminal)) and 0.432 ± 0.031 (dye: Cy5 (3' terminal)).
Turning to “TTTTTTGATGATCAGCAGCATTTTTTTTTTTTTTTCCGTT [TTGCC]”, the background-corrected fluorescence by setting is: (dye: Cy3 (3' terminal)) 0.542 ± 0.036; (dye: Cy5 (3' terminal)) 0.446 ± 0.059.
Consider “TTTTTTGATGATCAGCATCATTTTTTTTTTTTTTTCCGTG [GTGCC]”, for which the background-corrected fluorescence by setting is: (dye: Cy3 (3' terminal)) 0.533 ± 0.0058; (dye: Cy5 (3' terminal)) 0.435 ± 0.029.
The like results for “TTTTTTGATGATCAGCATGATTTTTTTTTTTTTTTCCGTC [CTGCC]” were, in that order, 0.442 ± 0.019 and 0.345 ± 0.018.
For “TTTTTTGATGATCAGCATGCTTTTTTTTTTTTTTTCCGTA [ATGCC]”, the background-corrected fluorescence was determined as 0.546 ± 0.025 (dye: Cy3 (3' terminal)) and 0.436 ± 0.028 (dye: Cy5 (3' terminal)).
Consider “TTTTTTGATGATCATCAGCATTTTTTTTTTTTTTTCCGGT [TGGCC]”, for which the background-corrected fluorescence reads like this: (dye: Cy3 (3' terminal)) 0.729 ± 0.028; (dye: Cy5 (3' terminal)) 0.624 ± 0.064.
On the same counts, the results for “TTTTTTGATGATCATCATCATTTTTTTTTTTTTTTCCGGG [GGGCC]” are 0.731 ± 0.012 and 0.655 ± 0.076.
On the same counts, the results for “TTTTTTGATGATCATCATGATTTTTTTTTTTTTTTCCGGC [CGGCC]” are 0.623 ± 0.025 and 0.511 ± 0.041.
The like results for “TTTTTTGATGATCATCATGCTTTTTTTTTTTTTTTCCGGA [AGGCC]” were, in that order, 0.773 ± 0.024 and 0.714 ± 0.045.
Regarding “TTTTTTGATGATCATGAGCATTTTTTTTTTTTTTTCCGCT [TCGCC]”, the background-corrected fluorescence runs as follows: (dye: Cy3 (3' terminal)) 0.579 ± 0.035; (dye: Cy5 (3' terminal)) 0.428 ± 0.034.
Take “TTTTTTGATGATCATGATCATTTTTTTTTTTTTTTCCGCG [GCGCC]”: the background-corrected fluorescence is, setting by setting: (dye: Cy3 (3' terminal)) 0.961 ± 0.026; (dye: Cy5 (3' terminal)) 0.944 ± 0.034.
For “TTTTTTGATGATCATGATGATTTTTTTTTTTTTTTCCGCC”, the background-corrected fluorescence amounted to 0.445 ± 0.024 (dye: Cy3 (3' terminal)) and 0.33 ± 0.022 (dye: Cy5 (3' terminal)).
On to “TTTTTTGATGATCATGATGCTTTTTTTTTTTTTTTCCGCA [ACGCC]”, for which the background-corrected fluorescence by setting is: (dye: Cy3 (3' terminal)) 0.539 ± 0.034; (dye: Cy5 (3' terminal)) 0.475 ± 0.024.
For “TTTTTTGATGATCATGCGCATTTTTTTTTTTTTTTCCGAT [TAGCC]”, the background-corrected fluorescence by setting is: (dye: Cy3 (3' terminal)) 0.603 ± 0.04; (dye: Cy5 (3' terminal)) 0.435 ± 0.022.
“TTTTTTGATGATCATGCTCATTTTTTTTTTTTTTTCCGAG [GAGCC]” registered a background-corrected fluorescence (dye: Cy3 (3' terminal)) of 0.593 ± 0.015 and a background-corrected fluorescence (dye: Cy5 (3' terminal)) of 0.501 ± 0.072.
With “TTTTTTGATGATCATGCTGATTTTTTTTTTTTTTTCCGAC [CAGCC]”, the background-corrected fluorescence reads like this: (dye: Cy3 (3' terminal)) 0.464 ± 0.024; (dye: Cy5 (3' terminal)) 0.374 ± 0.068.
The like results for “TTTTTTGATGATCATGCTGCTTTTTTTTTTTTTTTCCGAA [AAGCC]” were, in that order, 0.647 ± 0.047 and 0.49 ± 0.031.
On the same counts, the results for “TTTTTTGATGATGAGCAGCATTTTTTTTTTTTTTTCCCTT” are 0.452 ± 0.011 and 0.359 ± 0.025.
The like results for “TTTTTTGATGATGAGCATCATTTTTTTTTTTTTTTCCCTG [GTCCC]” were, in that order, 0.528 ± 0.048 and 0.364 ± 0.024.
Turning to “TTTTTTGATGATGAGCATGATTTTTTTTTTTTTTTCCCTC [CTCCC]”, the background-corrected fluorescence reads like this: (dye: Cy3 (3' terminal)) 0.346 ± 0.012; (dye: Cy5 (3' terminal)) 0.26 ± 0.019.
“TTTTTTGATGATGAGCATGCTTTTTTTTTTTTTTTCCCTA [ATCCC]”: the background-corrected fluorescence (dye: Cy3 (3' terminal)) is 0.458 ± 0.025 and the background-corrected fluorescence (dye: Cy5 (3' terminal)) came to 0.35 ± 0.019.
As for “TTTTTTGATGATGATCAGCATTTTTTTTTTTTTTTCCCGT [TGCCC]”, the background-corrected fluorescence by setting is: (dye: Cy3 (3' terminal)) 0.585 ± 0.034; (dye: Cy5 (3' terminal)) 0.48 ± 0.021.
On the same counts, the results for “TTTTTTGATGATGATCATCATTTTTTTTTTTTTTTCCCGG [GGCCC]” are 0.625 ± 0.027 and 0.562 ± 0.072.
On the same counts, the results for “TTTTTTGATGATGATCATGATTTTTTTTTTTTTTTCCCGC [CGCCC]” are 0.51 ± 0.013 and 0.419 ± 0.034.
The like results for “TTTTTTGATGATGATCATGCTTTTTTTTTTTTTTTCCCGA [AGCCC]” were, in that order, 0.629 ± 0.051 and 0.554 ± 0.034.
Regarding “TTTTTTGATGATGATGAGCATTTTTTTTTTTTTTTCCCCT”, the background-corrected fluorescence was 0.438 ± 0.024 (dye: Cy3 (3' terminal)) and 0.312 ± 0.016 (dye: Cy5 (3' terminal)).
“TTTTTTGATGATGATGATCATTTTTTTTTTTTTTTCCCCG [GCCCC]”: the background-corrected fluorescence reads like this: (dye: Cy3 (3' terminal)) 0.471 ± 0.035; (dye: Cy5 (3' terminal)) 0.377 ± 0.026.
On the same counts, the results for “TTTTTTGATGATGATGATGATTTTTTTTTTTTTTTCCCCC” are 0.369 ± 0.018 and 0.251 ± 0.018.
On the same counts, the results for “TTTTTTGATGATGATGATGCTTTTTTTTTTTTTTTCCCCA [ACCCC]” are 0.423 ± 0.023 and 0.352 ± 0.021.
“TTTTTTGATGATGATGCGCATTTTTTTTTTTTTTTCCCAT [TACCC]”: the background-corrected fluorescence runs as follows: (dye: Cy3 (3' terminal)) 0.49 ± 0.03; (dye: Cy5 (3' terminal)) 0.356 ± 0.015.
As to “TTTTTTGATGATGATGCTCATTTTTTTTTTTTTTTCCCAG [GACCC]”, the background-corrected fluorescence is 0.504 ± 0.0073 (dye: Cy3 (3' terminal)) and 0.374 ± 0.025 (dye: Cy5 (3' terminal)).

Values taken from the supplement of paper PMC9428881.
